The labels stand for the following.
T1: Bovine, dephosphorylated, Myelin Basic Protein (MBP), P02687
T1 chain: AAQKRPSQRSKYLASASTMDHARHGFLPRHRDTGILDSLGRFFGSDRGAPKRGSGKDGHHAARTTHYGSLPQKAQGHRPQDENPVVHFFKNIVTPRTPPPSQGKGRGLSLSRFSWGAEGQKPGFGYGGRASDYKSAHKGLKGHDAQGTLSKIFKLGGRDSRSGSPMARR

B1: MAPKAPK5(PRAK) (protein)
chain: MSEESDMDKAIKETSILEEYSINWTQKLGAGISGPVRVCVKKSTQERFALKILLDRPKARNEVRLHMMCATHPNIVQIIEVFANSVQFPHESSPRARLLIVMEMMEGGELFHRISQHRHFTEKQASQVTKQIALALRHCHLLNIAHRDLKPENLLFKDNSLDAPVKLCDFGFAKIDQGDLMTPQFTPYYVAPQVLEAQRRHQKEKSGIIPTSPTPYTYNKSCDLWSLGVIIYVMLCGYPPFYSKHHSRTIPKDMRRKIMTGSFEFPEEEWSQISEMAKDVVRKLLKVKPEERLTIEGVLDHPWLNSTEALDNVLPSAQLMMDKAVVAGIQQAHAEQLANMRIQDLKVSLKPLHSVNNPILRKRKLLGTKPKDSVYIHDHENGAEDSNVALEKLRDVIAQCILPQAGENEDEKLNEVMQEAWKYNRECKLLRDTLQSFSWNGRGFTDKVDRLKLAEIVKQVIEEQTTSHESQ
B2: MAPK13(p38delta) (protein)
chain: MSLIRKKGFYKQDVNKTAWELPKTYVSPTHVGSGAYGSVCSAIDKRSGEKVAIKKLSRPFQSEIFAKRAYRELLLLKHMQHENVIGLLDVFTPASSLRNFYDFYLVMPFMQTDLQKIMGMEFSEEKIQYLVYQMLKGLKYIHSAGVVHRDLKPGNLAVNEDCELKILDFGLARHADAEMTGYVVTRWYRAPEVILSWMHYNQTVDIWSVGCIMAEMLTGKTLFKGKDYLDQLTQILKVTGVPGTEFVQKLNDKAAKSYIQSLPQTPRKDFTQLFPRASPQAADLLEKMLELDVDKRLTAAQALTHPFFEPFRDPEEETEAQQPFDDSLEHEKLTVDEWKQHIYKEIVNFSPIARKDSRRRSGMKL
B3: MINK1 (protein)
chain: MGDPAPARSLDDIDLSALRDPAGIFELVEVVGNGTYGQVYKGRHVKTGQLAAIKVMDVTEDEEEEIKQEINMLKKYSHHRNIATYYGAFIKKSPPGNDDQLWLVMEFCGAGSVTDLVKNTKGNALKEDCIAYICREILRGLAHLHAHKVIHRDIKGQNVLLTENAEVKLVDFGVSAQLDRTVGRRNTFIGTPYWMAPEVIACDENPDATYDYRSDIWSLGITAIEMAEGAPPLCDMHPMRALFLIPRNPPPRLKSKKWSKKFIDFIDTCLIKTYLSRPPTEQLLKFPFIRDQPTERQVRIQLKDHIDRSRKKRGEKEETE
B4: NEK3 (protein)
chain: MDDYMVLRMIGEGSFGRALLVQHESSNQMFAMKEIRLPKSFSNTQNSRKEAVLLAKMKHPNIVAFKESFEAEGHLYIVMEYCDGGDLMQKIKQQKGKLFPEDMILNWFTQMCLGVNHIHKKRVLHRDIKSKNIFLTQNGKVKLGDFGSARLLSNPMAFACTYVGTPYYVPPEIWENLPYNNKSDIWSLGCILYELCTLKHPFQANSWKNLILKVCQGCISPLPSHYSYELQFLVKQMFKRNPSHRPSATTLLSRGIVARLVQKCLPPEIIMEYGEEVLEEIKNSKHNTPRKKTNPSRIRIALGNEASTVQEEEQDRKGSHTDLESINENLVESALRRVNREEKGNKSVHLRKASSPNLHRRQWEKNVPNTALTALENASILTSSLTAEDDRGGSVIKYSKNTTRKQWLKETPDTLLNILKNADLSLAFQTYTIYRPGSEGFLKGPLSEETEASDSVDGGHDSVILDPERLEPGLDEEDTDFEEEDDNPDWVSELKKRAGWQGLCDR
B5: MAPK12(p38gamma) (protein)
chain: MSSPPPARSGFYRQEVTKTAWEVRAVYRDLQPVGSGAYGAVCSAVDGRTGAKVAIKKLYRPFQSELFAKRAYRELRLLKHMRHENVIGLLDVFTPDETLDDFTDFYLVMPFMGTDLGKLMKHEKLGEDRIQFLVYQMLKGLRYIHAAGIIHRDLKPGNLAVNEDCELKILDFGLARQADSEMTGYVVTRWYRAPEVILNWMRYTQTVDIWSVGCIMAEMITGKTLFKGSDHLDQLKEIMKVTGTPPAEFVQRLQSDEAKNYMKGLPELEKKDFASILTNASPLAVNLLEKMLVLDAEQRVTAGEALAHPYFESLHDTEDEPQVQKYDDSFDDVDRTLDEWKRVTYKEVLSFKPPRQLGARVSKETPL
B6: MYLK2 (protein)
chain: MATENGAVELGIQNPSTDKAPKGPTGERPLAAGKDPGPPDPKKAPDPPTLKKDAKAPASEKGDGTLAQPSTSSQGPKGEGDRGGGPAEGSAGPPAALPQQTATPETSVKKPKAEQGASGSQDPGKPRVGKKAAEGQAAARRGSPAFLHSPSCPAIISSSEKLLAKKPPSEASELTFEGVPMTHSPTDPRPAKAEEGKNILAESQKEVGEKTPGQAGQAKMQGDTSRGIEFQAVPSEKSEVGQALCLTAREEDCFQILDDCPPPPAPFPHRMVELRTGNVSSEFSMNSKEALGGGKFGAVCTCMEKATGLKLAAKVIKKQTPKDKEMVLLEIEVMNQLNHRNLIQLYAAIETPHEIVLFMEYIEGGELFERIVDEDYHLTEVDTMVFVRQICDGILFMHKMRVLHLDLKPENILCVNTTGHLVKIIDFGLARRYNPNEKLKVNFGTPEFLSPEVVNYDQISDKTDMWSMGVITYMLLSGLSPFLGDDDTETLNNVLSGNWYFDEETFEAVSDEAKDFVSNLIVKDQRARMNAAQCLAHPWLNNLAEKAKRCNRRLKSQILLKKYLMKRRWKKNFIAVSAANRFKKISSSGALMALGV
B7: NEK2 (protein)
chain: MPSRAEDYEVLYTIGTGSYGRCQKIRRKSDGKILVWKELDYGSMTEAEKQMLVSEVNLLRELKHPNIVRYYDRIIDRTNTTLYIVMEYCEGGDLASVITKGTKERQYLDEEFVLRVMTQLTLALKECHRRSDGGHTVLHRDLKPANVFLDGKQNVKLGDFGLARILNHDTSFAKTFVGTPYYMSPEQMNRMSYNEKSDIWSLGCLLYELCALMPPFTAFSQKELAGKIREGKFRRIPYRYSDELNEIITRMLNLKDYHRPSVEEILENPLIADLVADEQRRNLERRGRQLGEPEKSQDSSPVLSELKLKEIQLQERERALKAREERLEQKEQELCVRERLAEDKLARAENLLKNYSLLKERKFLSLASNPELLNLPSSVIKKKVHFSGESKENIMRSENSESQLTSKSKCKDLKKRLHAAQLRAQALSDIEKNYQLKSRQILGMR
B8: MAPK14(p38alpha) (protein)
chain: MSQERPTFYRQELNKTIWEVPERYQNLSPVGSGAYGSVCAAFDTKTGLRVAVKKLSRPFQSIIHAKRTYRELRLLKHMKHENVIGLLDVFTPARSLEEFNDVYLVTHLMGADLNNIVKCQKLTDDHVQFLIYQILRGLKYIHSADIIHRDLKPSNLAVNEDCELKILDFGLARHTDDEMTGYVATRWYRAPEIMLNWMHYNQTVDIWSVGCIMAELLTGRTLFPGTDHINQLQQIMRLTGTPPAYLINRMPSHEARNYIQSLTQMPKMNFANVFIGANPLAVDLLEKMLVLDSDKRITAAQALAHAYFAQYHDPDDEPVADPYDQSFESRDLLIDEWKSLTYDEVISFVPPPLDQEEMES
B9: MAPKAPK3 (protein)
chain: MDGETAEEQGGPVPPPVAPGGPGLGGAPGGRREPKKYAVTDDYQLSKQVLGLGVNGKVLECFHRRTGQKCALKLLYDSPKARQEVDHHWQASGGPHIVCILDVYENMHHGKRCLLIIMECMEGGELFSRIQERGDQAFTEREAAEIMRDIGTAIQFLHSHNIAHRDVKPENLLYTSKEKDAVLKLTDFGFAKETTQNALQTPCYTPYYVAPEVLGPEKYDKSCDMWSLGVIMYILLCGFPPFYSNTGQAISPGMKRRIRLGQYGFPNPEWSEVSEDAKQLIRLLLKTDPTERLTITQFMNHPWINQSMVVPQTPLHTARVLQEDKDHWDEVKEEMTSALATMRVDYDQVKIKDLKTSNNRLLNKRRKKQAGSSSASQGCNNQ
B10: MAPK3(ERK1) (protein)
chain: MAAAAAQGGGGGEPRRTEGVGPGVPGEVEMVKGQPFDVGPRYTQLQYIGEGAYGMVSSAYDHVRKTRVAIKKISPFEHQTYCQRTLREIQILLRFRHENVIGIRDILRASTLEAMRDVYIVQDLMETDLYKLLKSQQLSNDHICYFLYQILRGLKYIHSANVLHRDLKPSNLLINTTCDLKICDFGLARIADPEHDHTGFLTEYVATRWYRAPEIMLNSKGYTKSIDIWSVGCILAEMLSNRPIFPGKHYLDQLNHILGILGSPSQEDLNCIINMKARNYLQSLPSKTKVAWAKLFPKSDSKALDLLDRMLTFNPNKRITVEEALAHPYLEQYYDPTDEPVAEEPFTFAMELDDLPKERLKELIFQETARFQPGVLEAP
B11: MAPK8(JNK1) (protein)
chain: MSRSKRDNNFYSVEIGDSTFTVLKRYQNLKPIGSGAQGIVCAAYDAILERNVAIKKLSRPFQNQTHAKRAYRELVLMKCVNHKNIIGLLNVFTPQKSLEEFQDVYIVMELMDANLCQVIQMELDHERMSYLLYQMLCGIKHLHSAGIIHRDLKPSNIVVKSDCTLKILDFGLARTAGTSFMMTPYVVTRYYRAPEVILGMGYKENVDLWSVGCIMGEMVCHKILFPGRDYIDQWNKVIEQLGTPCPEFMKKLQPTVRTYVENRPKYAGYSFEKLFPDVLFPADSEHNKLKASQARDLLSKMLVIDASKRISVDEALQHPYINVWYDPSEAEAPPPKIPDKQLDEREHTIEEWKELIYKEVMDLEERTKNGVIRGQPSPLAQVQQ
B12: EPHA8 (protein)
chain: KKRHCGYSKAFQDSDEEKMHYQNGQAPPPVFLPLHHPPGKLPEPQFYAEPHTYEEPGRAGRSFTREIEASRIHIEKIIGSGDSGEVCYGRLRVPGQRDVPVAIKALKAGYTERQRRDFLSEASIMGQFDHPNIIRLEGVVTRGRLAMIVTEYMENGSLDTFLRTHDGQFTIMQLVGMLRGVGAGMRYLSDLGYVHRDLAARNVLVDSNLVCKVSDFGLSRVLEDDPDAAYTTTGGKIPIRWTAPEAIAFRTFSSASDVWSFGVVMWEVLAYGERPYWNMTNRDVISSVEEGYRLPAPMGCPHALHQLMLDCWHKDRAQRPRFSQIVSVLDALIRSPESLRATATVSRCPPPAFVRSCFDLRGGSGGGGGLTVGDWLDSIRMGRYRDHFAAGGYSSLGMVLRMNAQDVRALGITLMGHQKKILGSIQTMRAQLTSTQGPRRHL

For this series, the target named is T1, Bovine, dephosphorylated, Myelin Basic ….
In the case of B1, the “MBP Kinase Activity” value is “Strong”.

Consider B2, for which the “MBP Kinase Activity” value was “Weak”.

As for B3, the “MBP Kinase Activity” value is reported as “Weak”.

As to B4, the “MBP Kinase Activity” value is recorded as “Negative”.

For B5, the “MBP Kinase Activity” value is reported as “Strong”.

Turning to B6, the “MBP Kinase Activity” value is reported as “Negative”.

B7: the “MBP Kinase Activity” value is given as “Strong”.

For B8, the “MBP Kinase Activity” value is listed as “Strong”.

For the protein B9, the “MBP Kinase Activity” value is listed as “Strong”.

For B10, the “MBP Kinase Activity” value is listed as “Strong”.

As to B11, the “MBP Kinase Activity” value was “Negative”.

For B12, the “MBP Kinase Activity” value is “Weak”.

The values are drawn from patent US20090099029.
